Assay results as given in patent US8461106B2, “Biofilm prevention using lactoferrin” (The Trustees of the University of Pennsylvania, priority 2007, dated 2013).

Test system: Pseudomonas aeruginosa (PAO1)
Assay: Plate based peg-lid crystal violet biofilm formation assay (Moskowitz)
Type: cell-based
Conditions: for detergent induced biofilm formation, effect of concomitant rhLactoferrin: 3 mg/ml rhLactoferrin
Method: Biofilm growth is determined using the plate based assay described by Moskowitz et al [Moskowitz, S. M., J. M. Foster, J. Emerson, et al., Clinically Feasible Biofilm Susceptibility Assay for Isolates of Pseudomonas Aeruginosa from Patients with Cystic Fibrosis. J Clin Microbiol, 2004. 42(5): p. 1915-22]. Pseudomonas aeruginosa (PAO1) cultures are grown to log phase (OD600=0.5) and 100 μl of culture is mixed with 25 μl of test 5× test substance and placed in 96 well flat bottom plates (Nalgene Nunc International, Rochester, N.Y.). A lid containing 96 polystyrene pegs (Nunc, TSP 96 well micro titer plate lid) is placed on top and the pegs are suspended in the wells. The lid is loosely fixed to the plate using a strip of parafilm (Menasha, Wis.). The plate is incubated without shaking at 37° C. for 20 hours at which time the lid containing the pegs is carefully removed from the 96 well culture plate and rinsed 3 times in sterile water. The pegs are placed in another 96 well plate containing Gram Crystal Violet (CV) (20 g/L CV, 8 g/L Ammonium Oxalate, 2% ethanol) for 15 min and then rinsed in sterile water three times to remove unbound crystal violet. The pegs are then immersed in a 96 well plate containing 200 ul of 100% EtOH for 15 minutes. The lid containing the pegs is removed from the eluted crystal violet and is read at 595 nm using a plate reader (Microplate Reader 680, Bio-Rad Hercules, Calif.).
These mutants are used as negative controls in each of the experiments to determine background signal above the blank.
The concentration of baby shampoo/chemical surfactant used for the clinical study was determined through in-vitro testing on planktonic pseudomonas aeruginosa and pre-formed pseudomonas aeruginosa biofilms. Bacterial and biofilm growth inhibition was determined using the plate based assay described in Moskowitz et al., (Clinically feasible biofilm susceptibility assay for isolates of Pseudomonas aeruginosa from patients with cystic fibrosis. J. Clinical Microbiology 2004; 42:1915-22). Briefly, PAO1 Pseudomonas aeruginosa bacterial strains were grown overnight. The following morning the culture was diluted to an OD600=0.1 with Luria-Bertani broth (LB) and the sample again diluted 1:100 in LB. […] At the completion of the incubation the lid containing the pegs was removed and processed for biofilm detection while the 96 well plate was analyzed for bacterial growth by determination of absorbance at 600 nm. […] The peg lid was then discarded and the eluted crystal violate was read on a microtiter plate reader (Microplate Reader 680, Bio-Rad Hercules, Calif.) at an optical density of 595 nm (OD595). […] Quantification of residual biofilms was performed as described above.

B1: rhLactoferrin: Recombinant human lactoferrin produced in Aspergillus niger, structurally identical to native human lactoferrin (protein, UniProt P02788 20-710, looked up)
Lactotransferrin: GRRRSVQWCAVSQPEATKCFQWQRNMRKVRGPPVSCIKRDSPIQCIQAIAENRADAVTLDGGFIYEAGLAPYKLRPVAAEVYGTERQPRTHYYAVAVVKKGGSFQLNELQGLKSCHTGLRRTAGWNVPIGTLRPFLNWTGPPEPIEAAVARFFSASCVPGADKGQFPNLCRLCAGTGENKCAFSSQEPYFSYSGAFKCLRDGAGDVAFIRESTVFEDLSDEAERDEYELLCPDNTRKPVDKFKDCHLARVPSHAVVARSVNGKEDAIWNLLRQAQEKFGKDKSPKFQLFGSPSGQKDLLFKDSAIGFSRVPPRIDSGLYLGSGYFTAIQNLRKSEEEVAARRARVVWCAVGEQELRKCNQWSGLSEGSVTCSSASTTEDCIALVLKGEADAMSLDGGYVYTAGKCGLVPVLAENYKSQQSSDPDPNCVDRPVEGYLAVAVVRRSDTSLTWNSVKGKKSCHTAVDRTAGWNIPMGLLFNQTGSCKFDEYFSQSCAPGSDPRSNLCALCIGDEQGENKCVPNSNERYYGYTGAFRCLAENAGDVAFVKDVTVLQNTDGNNNEAWAKDLKLADFALLCLDGKRKPVTEARSCHLAMAPNHAVVSRMDKVERLKQVLLHQQAKFGRNGSDCPDKFCLFQSETKNLLFNDNTECLARLHGKTTYEKYLGPQYVAGITNLKKCSTSPLLEACEFLRK
modifications: recombinant, Aspergillus niger
In the case of B1, the “detergent induced biofilm formation, effect of concomitant rhLactoferrin” value (induction by Curosurf, FIG. 5 bottom panel) is reported as “blunts the induction of biofilm formation”, the “detergent induced biofilm formation, effect of concomitant rhLactoferrin” value (induction by Johnson and Johnson Baby Shampoo, FIG. 5 top panel) is reported as “blunts the induction of biofilm formation” and the “detergent induced biofilm formation, effect of rhLactoferrin” value (detergents in general, FIGS. 4 and 5) is reported as “inhibits detergent induced biofilm formation”. For the same molecule, the “induction of biofilm formation by subtherapeutic concentrations of antibiotics, effect of added rhLactoferrin” value (subtherapeutic Cephalosporins and aminoglycosides, FIG. 3) was “blunted”.
